The results in this text go back to the DeepSol protein solubility set.

This data set can be described thus: soluble on expression in E. coli; label from the status in PepcDB or PDB records.
With “MKGKKVLITSGGCLEKWDQVRGHTNMAKGTIGRIIAEELLAKGAHVIYLHGYFAEKPSDVHRGLELHPFEGIVDLQDKMKSIISHEKVDAVIMAAAGSDWIVEKICDQDGNVLNMNGKISSDIAPIIHFQKAPKVLKQIKEWDPETVLVGFKLESDLNEEELFERAKNRMKEARANVMIANSPHSLYSRGAVHYVIGQDGKGKLCNGKDETAKEIVKSLEVLCNRVTAF”, the “soluble on expression in E. coli” value was “not soluble”.
For “MKIRVADEKELPMILQFLTEVKAYMDVVGITQWTKDYPSQGDIQEDITKKRLYLLVHEEMIFSMATFCMEQEQDFVWLKRFATSPNYIAKGYGSLLFHELEKRAVWEGRRKMYAQTNHTNHRMIRFFESKGFTKIHESLQMNRLDFGSFYLYVKELENQSIV”, the “soluble on expression in E. coli” value was “soluble”.
Regarding “MYKILEKKEIAMRNTWYKVYAPHVAKKVQPGQFVIVRAFPNGERIPLTPVMWDREEGWIVLIVFTRGKTTMRMAVELKEGDSLLNVAGPLGTPVPMEKFGKILAIGAYTGIVEVYPIAKAWQEIGNDVTTLHVTFEPMVILKEELEKAVTRHIVEPVPLNPNQDFLANMKNVSQRLKEKVRELLESEDWDLVFMVGPVGDQKQVFEVVKEYGVPMKVDLHPIMVDGTGMCGACRVTVGGEVKFACVDGPEFDAYQVDWDELIHRVGFYAKLEKLALEKYMEELKAKGVILEHHHHHH”, the “soluble on expression in E. coli” value is given as “not soluble”.
The value for “MSKLIKGIAASDGVAIAKAYLLVEPDLTFDKNEKVTDVEGEVAKFNSAIEASKVELTKIRNNAEVQLGADKAAIFDAHLLVLDDPELIQPIQDKIKNENANAATALTDVTTQFVTIFESMDNEYMKERAADIRDVSKRVLSHILGVELPNPSMIDESVVIVGNDLTPSDTAQLNKEFVQGFATNIGGRTSASAIMSRSLEIPAIVGTKSITQEVKQGDMIIVDGLNGDVIVNPTEDELIAYQDKRERYFADKKELQKLRDADTVTVDGVHAELAANIGTPNDLPGVIENGAQGIGLYRTEFLYMGRDQMPTEEEQFEAYKEVLEAMGGKRVVVRTLDIGGDKELSYLNLPEEMNPFLGYRAIRLSLAQQDIFRPQLRALLRASVYGKLNIMFPMVATINEFREAKAILLEEKENLKNEGHDISDDIELGIMVEIPATAALADVFAKEVDFFSIGTNDLIQYTLAADRMSERVSYLYQPYNPSILRLVKQVIEASHKEGKWTGMCGEMAGDETAIPLLLGLGLDEFSMSATSILKARRQINGLSKNEMTELANRAVDCATQEEVIELVNNYVK” was “soluble”; that for “SLEPIGRSLQGVTGRPDFQKRLEQMKEKVMKDQDVQAFLKENEEVIDQKMIEKSLNKLYEYIEQSKNCSYCSEDENCNNLLEGYHPKLVVNGRSIDIEYYECPVKRKLDQQKKQQSLMKSMYIQQDLLGATFQQVDISDPSRLAMFQHVTDFLKSYNETGKGKGLYLYGKFGVGKTFMLAAIANELAEKEYSSMIVYVPEFVRELKNSLQDQTLEEKLNMVKTTPVLMLDDIGAESMTSWVRDEVIGTVLQHRMSQQLPTFFSSNFSPDELKHHFTYSQRGEKEEVKAARLMERILYLAAPIRLDGENRRHP” was “soluble”.
As for “RYWQLEVAPRRRADPPEALLELLDRSVTARMQGGPVGSMLSGGLDSGTVSMLASRRSEGPLPVISMKFDDHPEIDESEWIAKIHAAGRFRPVWIDGRDAHGGDVAELLAEQGGPFFAPNLATSRWLYRRAAEAGVEILLDGHGGDEVISFGVARLTELASEAQWRTLWQSTAAVSDLFGGSRREFFLNSMAQGAQSRWLRAMARRLNVGAKRDPRAWRQALHPALVARTGLVQRVQEAAGARKRGATDDIRQHVATLTAPRYPTTLEVLDRAATLCGIEPRYPFLERRLIEHCVAQPAAAKFHDGMTRALLRDAVRGLLPDEVRLRTSKTNFTPNVRARMLTSWGDNLNRIAGCNPGRIGDYVDLAVIREGIQRLRAGEPDQPALLQTMRAVVLDEWLR”, the “soluble on expression in E. coli” value is given as “not soluble”.
The value for “MTRKFLNILKERTGVESITREQVRGIRRLVKKAREWDERKAQRYAKSAGKISDEEYSRLWSIDSYVISDSDKEKLKNLDQKTVFNNIMWLSRNAEKIDSNMKKFLGMHVWVVNYWIKTVGSATVRKFLRENNYSGEFVYFLYRYFNL” was “not soluble”; that for “MGSDKIHHHHHHMLAASMVDLARRLGVSSVHVTFPGGDEYEGLGEAGYLQRLGSQYHWTNPGYQSFDDFLGQLSSRKRKQIRKERDAVARTGIRLSTLVGGDVKARHWDVFHAFYQAVVDRKWGRAYVSRAFFEELSASALADSVVLVWAEDGGEPLGAAFNMLGGDTLYGRTWGGGRHVDFLHFEACYYRALDFAIAQGLARVEAGAQGEHKVSRGYLPNATYSAHWIADSRLAEPVARYLVHERAMVTEDMASQTEEGPFRKG” was “not soluble”; that for “MKGGAGVPDLPSLDASGVRLAIVASSWHGKICDALLDGARKVAAGCGLDDPTVVRVLGAIEIPVVAQELARNHDAVVALGVVIRGQTPHFDYVCDAVTQGLTRVSLDSSTPIANGVLTTNTEEQALDRAGLPTSAEDKGAQATVAALATALTLRELRAHS” was “soluble”.
With “MSLYKLYSMQRSGNSYKVRLALALLDAPYRAVEVDILRGESRTPDFLAKNPSGQVPLLETAPGRYLAESNAILWYLAVGTSLAPDTRMDRAEALQWMFFEQHALEPNIGSAYFWLCLVKGGRDLQTHALEDWLERGYAALQVMENHLKTNDYFAAGQLTIADIALYGYTHVADQCDFDLSTFPAVNAWLRRVEQTPGFITMDWTPETIAADPTSFAAEGHHHHHH”, the “soluble on expression in E. coli” value is “soluble”.
Turning to “MGSDKIHHHHHHMNSPAMSPNTLGIDFGTSNSAAGLAVAGRPWLVELEPGETTLPTAVFFDSDSKKMRIGRSATRALIEGEEGRFMRALKSLLGTSLLYEKRRLGGVTMDFTDVIAHFLREVKTRAETATRMEFTHALSGRPVKFHSKDETRNARAEEDLRHCYKKAGFQDVTFMYEPEAALRAARPHPGIGLVVDIGGGTSDFTCFEQDATGGTRILASHGLRLGGTDFDRQISIDHVMPHLGRGAMIRNSFGEGSLPAPNRIFNDLATWQMIPFLYGLDTRRAARDLAQNAEDPTTLNRLVQVLEDELGHDLAFATEAGKIRANGSDDAGAQIDLRLIERGLSAALPRAALEASLAQMVREIQDEAKETLRLADVAPEAVTRCVMVGGSALLMAVRAALQDLCPTAEIETERALTAVADGLALETQDGAA”, the “soluble on expression in E. coli” value is given as “not soluble”.
As for “MQFGRHISGQFNVELESIRSQVLTMGGLVEQQLTLAMQALHEDDEKLARRVIADDHKVNAMEVSIDEACTRIIAKRQPTAKDLRLIMAIIKTITDLERIGDSATKMAYIAIERPPAKQHQFQVSLEPLCRQAIAMLHQVLDAFARMDVEAAAEIYKQDDRLDKEYEAVVRQLMTYMMEDPKNIPHILQVIWSARAIERVGDRCQNICEYIIYFVKGKDVRHLGDQGIDDVLKKPSL”, the “soluble on expression in E. coli” value is “not soluble”.
Regarding “MKKYDVIVVGAGISGLLAALTLSKHGKKVLVLEKGQHLGGNCNSYIVDGYQVDTGAHAITHLIEGPLPRLMDNYFDFLPVFEDYGYYYVRTENALIKVPSNLKDFVTFDVLPRKDRLILSQTLTKALTLSSFGIDLSDQSVYDFLPKNLCKDTYDFVNTISAFLSGKSMKETSAQRILSGSSFVRDSITQEQFDAMIGKFEPKKRQSTESILSSILPYHLHASLQARVDKVAQPFTSLERLATNKVNYSQGYPRKGLKALLNAILYSFPDTVEIKSECEVTGILVESEKVYGVEADEIYLADLIIYTGFATDLPELIKDLPQAYIEELKGIVHTKSLTIWLGLKEELPEFKYTGSEIWFKDFAYWAMPISNYDPSLAPKDKQLVGFSFVIDSEQTEEHELKKAYDTIFRALPNIEKYIDMQHEQIMIPEKAAVTINGKFSDIRTPVKNLYIAGTDTDRRSMGITRAAYSIIELLKILNEDGNLHLEHHHHHH”, the “soluble on expression in E. coli” value was “not soluble”.
For the sequence “SNAMRNKNMSTIYQTSATASAGRNGVVSTEDKLLELNLSYPKEMGGSGTATNPEQLFAVGYAACFSNAILHVAREAKVALKEAPVTATVGIGPNGQGGFALSVALAAHIALEDEQARQLVTVAHQVCPYSNAVRGNIDVQVSVNGLAL”, the “soluble on expression in E. coli” value is “soluble”.
Turning to “MGSDKIHHHHHHMNIYDQLQAVEDRYEELGELLSDPDVVSDTKRFMELSREEANSRETVAVYREYKQVVQNIADAQEMIKDASGDPELEEMAKEELKNSKVAKEEYEEKLRFLLLPKDPNDDKNIILEIRGAAGGDEAALFAGDLLNMYQKYAENQGWKFEVMEASANGVGGLKEVVAMVSGQSVYSKLKYESGAHRVQRVPVTESQGRVHTSTATVLVMPEVEEVEYEIDPKDLRVDIYHASGAGGQNVNKVATAVRIIHLPTNIKVEMQEERTQQKNRDKAMKIIRARVADHFAQIAQDEQDAERKSTVGTGDRSERIRTYNFPQNRVTDHRIGLTLQKLDSILSGKLDEVIDALILYDQTQKLEELNK”, the “soluble on expression in E. coli” value is recorded as “soluble”.
As for “TLWPREVEGGQGKPSHGCRAASKARLEAKPANSPFPSHPSLAHITQFRMMVSLGHLAKGASLDDLIDSCIQSFDADGNLCRSNQLLQVMLTMHRIVISSAELLQKVITLYKDALAKNSPGLCLKICYFVRYWITEFWVMFKMDASLTDTMEEFQELVKAKGEELHCRLIDTTQINARDWSRKLTQRIKSNTSKKRKVSLLFDHLEPEELSEHLTYLEFKSFRRISFSDYQNYLVNSCVKENPTMERSIALCNGISQWVQLMVLSRPTPQLRAEVFIKFIQVAQKLHQLQNFNTLMAVIGGLCHSSISRLKETSSHVPHEINKVLGEMTELLSSSRNYDNYRRAYGECTDFKIPILGVHLKDLISLYEAMPDYLEDGKVNVHKLLALYNHISELVQLQEVAPPLEANKDLVHLLTLSLDLYYTEDEIYELSYAREPRNHRAPPLTPSKPPVVVDWASGVSPKPDPKTISKHVQRMVDSVFKNYDHDQDGYISQEEFEKIAASFPFSFCVMDKDREGLISRDEITAYFMRASSIYSKLGLGFPHNFQETTYLKPTFCDNCAGFLWGVIKQGYRCKDCGMNCHKQCKDLVVFECKKRAKNPVAPTENNTSVGPVSNLCSLGAKDLLHAPEEGPFTFPNGEAVEHGEESKDRTIMLMGVSSQKISLRLKRAVAHKATQTESQPWIGSEGPSGPFVLSSPRKTAQDTLYVLPSPTSPCPSPVLVRKRAFVKWENKDSLIKSKEELRHLRLPTYQELEQEINTLKADNDALKIQLKYAQKKIESLQLEKSNHVLAQMEQGDCS”, the entry is “soluble”.
Regarding “MKENAVRRANDPKRREKIIQATLEAVKTYGVHAVTHRKIAAIAQVPLGSMTYYFAGMDALLSEAFTLFTENMSRQYQDFFAQVTDAEGACQAITEMIYGSQVTTPDNMALMYQLYAYASDKPALKIVMQNWMQRSQNTLAQWFDAQTARALDAFIEGMTLHFVTDRTPLAREAILQMVKRIAGVSMSCHSALGNKKPTNLEPKWRG”, the “soluble on expression in E. coli” value is reported as “not soluble”.
As for “GAEFKEKPEAPTEQLDVACGQENLPVGAWPPGAAPAPFQYTPDHVVGPGADIDPTQITFPGCICVKTPCLPGTCSCLRHGENYDDNSCLRDIGSGGKYAEPVFECNVLCRCSDHCRNRVVQKGLQFHFQVFKTHKKGWGLRTLEFIPKGRFVCEYAGEVLGFSEVQRRIHLQTKSDSNYIIAIREHVYNGQVMETFVDPTYIGNIGRFLNHSCEPNLLMIPVRIDSMVPKLALFAAKDIVPEEELSYDYSGRYLNLTVSASKERLDHGKLRKPCYCGAKSCTAFLPFDSS”, the entry is “soluble”; as for “MSLSQIISSNDVDFQAYMAEAEPQAKVLAAEAWRDDLVRTVEHGDQITGAKLPWSKTHDLLRFRPGEVTLWQGINGHGKSELLGQACIGFATQGERVCIASFEMKPQATLKRMLRQTAMNARPGVQAVDRLIDWSRDRLWLYDQQGTVTPAMLYAVIRYCADRLKVRHMVIDSLMKCVRGEDDYNGQKDFVDMLCTLARDLRMHIHLVHHAKKGENEDQVPGKFSAKGSGAIVDQVDQMLTVWRNKKKERIAEAELRKDGEVSADTHDSPDTLLICDKNRHGEWEGRIQLWRHADSLQFTGDKRRQPLDMIGALAEGHHHHHH”, “soluble”.
